Data reported in publication PMC4498709.
One block for each substance: values may come before it.

Key:
[1] = tested on: ctMex67 deltaN (with Mtr2);ctMtr2 (Chaetomium thermophilum;Chaetomium thermophilum); assay: fluorescence anisotropy; details: 20 mM Tris-HCl pH 8.0, 50 mM NaCl, 10 nM DY-547-labelled RNA, serially diluted protein, temperature not stated
[2] = biological target: Chaetomium thermophilum Mex67 LRR-NTF2L (ctMex67^LRR-NTF2L; residues 180-556) (Chaetomium thermophilum); assay: SEC-MALS; ctMex67^LRR-NTF2L alone; single peak; dimer
[3] = tested on: ctMex67 LRR-NTF2L (RRM deletion);ctMtr2 (Chaetomium thermophilum;Chaetomium thermophilum); assay: fluorescence anisotropy; details: 20 mM Tris-HCl pH 8.0, 50 mM NaCl, 10 nM DY-547-labelled RNA, serially diluted protein; temperature not stated
[4] = tested on: ctMex67 RRM-LRR (NTF2L-Mtr2 deletion) (Chaetomium thermophilum); assay: fluorescence anisotropy; details: 20 mM Tris-HCl pH 8.0, 50 mM NaCl, 10 nM DY-547-labelled RNA, serially diluted protein; temperature not stated
[5] = tested on: ctMex67 deltaUBA (deltaN deltaUBA);ctMtr2 (Chaetomium thermophilum;Chaetomium thermophilum); assay: fluorescence anisotropy; details: 20 mM Tris-HCl pH 8.0, 50 mM NaCl, 10 nM DY-547-labelled RNA, serially diluted protein; temperature not stated

Substance: CCCCCCCCCCCCCCC [polyC15]
- Kd [1]: 6000 nM

- stoichiometry N [2]: 2
Substance: Chaetomium thermophilum Mex67 LRR-NTF2L (ctMex67^LRR-NTF2L; residues 180-556) (domain or fragment)

Substance: GGGGGGGGGGGGGGG [polyG15]
- Kd [1]: 310 nM

Substance: AAAAAAAAAAAAAAA [polyA15]
- Kd [3]: 6.8 µM
- Kd [1]: 350 nM
- Kd [4]: 5.5 µM
- Kd [5]: 0.37 µM

Substance: UUUUUUUUUUUUUUU [polyU15]
- Kd ([1]; printed '930 and 6.0 µM, respectively', 930 read as nM): 930 nM
